Drawing on patent US7589065, this text covers IC50 of the inhibition of the APIase activity of DnaK (spectrophotometric Ala-Leu assay), relative intensity of the cross signal of the Ala-Tyr peptide bond (no addition: 3.50 ± 0.51) (relative intensity) and relative intensity of the cross signal of the Tyr-Ala peptide bond (no addition: 3.89 ± 0.32) (relative intensity) for 2 substances.

One data set addresses DnaK (Escherichia coli) (UniProt P0A6Y8). In words: cell-based or functional assay.
Another data set relates to T1, Ala-Ala-Tyr-Ala-Ala.
T1 sequence: AAYAA

Chain of DnaK (Escherichia coli) (P0A6Y8 2-638 limits assumed): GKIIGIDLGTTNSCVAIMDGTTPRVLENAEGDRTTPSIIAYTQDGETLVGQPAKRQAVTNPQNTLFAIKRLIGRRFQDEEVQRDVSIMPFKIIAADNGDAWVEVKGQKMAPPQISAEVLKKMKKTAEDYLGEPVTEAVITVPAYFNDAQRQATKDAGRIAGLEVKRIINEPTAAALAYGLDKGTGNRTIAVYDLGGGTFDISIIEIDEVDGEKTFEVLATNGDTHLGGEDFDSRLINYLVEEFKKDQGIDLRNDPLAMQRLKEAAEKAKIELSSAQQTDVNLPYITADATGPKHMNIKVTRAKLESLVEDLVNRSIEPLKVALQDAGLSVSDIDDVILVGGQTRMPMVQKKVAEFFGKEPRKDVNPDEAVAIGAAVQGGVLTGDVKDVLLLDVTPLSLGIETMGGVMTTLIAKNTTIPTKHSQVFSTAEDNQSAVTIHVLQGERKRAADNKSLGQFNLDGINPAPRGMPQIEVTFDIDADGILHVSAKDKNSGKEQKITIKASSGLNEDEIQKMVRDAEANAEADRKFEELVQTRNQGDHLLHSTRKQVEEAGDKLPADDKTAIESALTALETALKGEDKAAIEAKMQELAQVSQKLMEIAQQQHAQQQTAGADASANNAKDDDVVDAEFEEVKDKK

In turn, substance P (peptide) registered an IC50 of the inhibition of the APIase activity of DnaK (spectrophotometric Ala-Leu assay) with DnaK (Escherichia coli) of 76 µM. In the data set with Ala-Ala-Tyr-Ala-Ala, FKBP12 had a relative intensity of the cross signal of the Ala-Tyr peptide bond (no addition: 3.50 ± 0.51) (relative intensity) of 3.94 and a relative intensity of the cross signal of the Tyr-Ala peptide bond (no addition: 3.89 ± 0.32) (relative intensity) of 2.68.
